Assay results: US20230212549A1 (3B PHARMACEUTICALS, published 2023)
“And” between values parts separate entries of the source, which are not always exact repeats. Identical values can stand only once. Numbered stars: 1 amine (or outer) side, 2 acyl side, 3 side chain; on linkers, the order of the positions; unused ones are H or OH. Bridge positions count the residues as written; N and C are the ends. Square brackets hold non-standard residues; d marks the D form. Primed or numbered codes have the meaning given here. Side chains are listed from the residue outwards. * marks the point of attachment. TBMB(SCH2CH2NH-DOTA) = O=C(O)CN1CCN(CC(=O)O)CCN(CC(=O)NCCSCc2cc(C[*:1])cc(C[*:2])c2)CCN(CC(=O)O)CC1; Ttds = 1,13-diamino-4,7,10-trioxatridecan-succinamic acid, O=C(CCC(=O)[*:2])NCCCOCCOCCOCCCN[*:1]; DOTA = O=C(O)CN1CCN(CC(=O)O)CCN(CC(=O)*)CCN(CC(=O)O)CC1; Bip = N[C@@H](Cc1ccc(-c2ccccc2)cc1)C(=O)O; Met(O2) = CS(=O)(=O)CC[C@H](N)C(=O)O; mXylylene = c1cc(C[*:1])cc(C[*:2])c1; NMeE = CN[C@@H](CCC(=O)O)C(=O)O; 3Amb = NCc1cccc(C(=O)O)c1; 4Amb = NCc1ccc(C(=O)O)cc1; DOTA′ = not defined here; Nle = CCCC[C@H](N)C(=O)O; Nphe = O=C(O)CNCc1ccccc1; Apr = not defined here; Hexanoyl = CCCCCC(=O)*; AEEA = NCCOCCOCC(=O)O

B1: DOTA-Ttds-Nle-[Cys(3MeBn)-Pro-Pro-Thr-Gln-Phe-Cys]-Asp-NH2 (peptide)
peptide: {DOTA}-[Ttds][Nle]CPPTQFCD-NH2
modifications: linker 3-9 via mXylylene
SMILES: CCCC[C@H](NC(=O)CCC(=O)NCCCOCCOCCOCCCNC(=O)CN1CCN(CC(=O)O)CCN(CC(=O)O)CCN(CC(=O)O)CC1)C(=O)N[C@H]1CSCc2cccc(c2)CSC[C@@H](C(=O)N[C@@H](CC(=O)O)C(N)=O)NC(=O)[C@H](Cc2ccccc2)NC(=O)[C@H](CCC(N)=O)NC(=O)[C@H]([C@@H](C)O)NC(=O)[C@@H]2CCCN2C(=O)[C@@H]2CCCN2C1=O
notes: also called 3BP-3401
B2: DOTA-Ttds-Nle-[Cys(3MeBn)-Pro-Pro-Thr-Glu-Phe-Cys]-Asp-Pamb-Arg-NH2 (peptide)
peptide: {DOTA}-[Ttds][Nle]CPPTEFCD[4Amb]R-NH2
modifications: linker 3-9 via mXylylene
SMILES: CCCC[C@H](NC(=O)CCC(=O)NCCCOCCOCCOCCCNC(=O)CN1CCN(CC(=O)O)CCN(CC(=O)O)CCN(CC(=O)O)CC1)C(=O)N[C@H]1CSCc2cccc(c2)CSC[C@@H](C(=O)N[C@@H](CC(=O)O)C(=O)NCc2ccc(C(=O)N[C@@H](CCCNC(=N)N)C(N)=O)cc2)NC(=O)[C@H](Cc2ccccc2)NC(=O)[C@H](CCC(=O)O)NC(=O)[C@H]([C@@H](C)O)NC(=O)[C@@H]2CCCN2C(=O)[C@@H]2CCCN2C1=O
notes: also called 3BP-3321
B3: Hex-[Cys(3MeBn)-Pro-Pro-Thr-Glu-Phe-Cys]-Asp-Mamb-Arg-NH2 (peptide)
peptide: Hexanoyl-CPPTEFCD[3Amb]R-NH2
modifications: linker 1-7 via mXylylene
SMILES: CCCCCC(=O)N[C@H]1CSCc2cccc(c2)CSC[C@@H](C(=O)N[C@@H](CC(=O)O)C(=O)NCc2cccc(C(=O)N[C@@H](CCCNC(=N)N)C(N)=O)c2)NC(=O)[C@H](Cc2ccccc2)NC(=O)[C@H](CCC(=O)O)NC(=O)[C@H]([C@@H](C)O)NC(=O)[C@@H]2CCCN2C(=O)[C@@H]2CCCN2C1=O
notes: also called 3BP-3324
B4: Hex-[Cys(3MeBn)-Ala-Pro-Thr-Glu-Phe-Cys]-NH2 (peptide)
peptide: Hexanoyl-CAPTEFC-NH2
modifications: linker 1-7 via mXylylene
SMILES: CCCCCC(=O)N[C@H]1CSCc2cccc(c2)CSC[C@@H](C(N)=O)NC(=O)[C@H](Cc2ccccc2)NC(=O)[C@H](CCC(=O)O)NC(=O)[C@H]([C@@H](C)O)NC(=O)[C@@H]2CCCN2C(=O)[C@H](C)NC1=O
B5: Hex-[Cys(3MeBn)-Pro-Pro-Thr-Glu-Ala-Cys]-NH2 (peptide)
peptide: Hexanoyl-CPPTEAC-NH2
modifications: linker 1-7 via mXylylene
SMILES: CCCCCC(=O)N[C@H]1CSCc2cccc(c2)CSC[C@@H](C(N)=O)NC(=O)[C@H](C)NC(=O)[C@H](CCC(=O)O)NC(=O)[C@H]([C@@H](C)O)NC(=O)[C@@H]2CCCN2C(=O)[C@@H]2CCCN2C1=O
B6: Hex-[Cys(tMeBn(DOTA-AET))-Pro-Pro-Thr-Glu-Phe-Cys]-NH2 (peptide)
peptide: Hexanoyl-CPPTEFC-NH2
modifications: linker 1-7 via TBMB(SCH2CH2NH-DOTA)
SMILES: CCCCCC(=O)N[C@H]1CSCc2cc(CSCCNC(=O)CN3CCN(CC(=O)O)CCN(CC(=O)O)CCN(CC(=O)O)CC3)cc(c2)CSC[C@@H](C(N)=O)NC(=O)[C@H](Cc2ccccc2)NC(=O)[C@H](CCC(=O)O)NC(=O)[C@H]([C@@H](C)O)NC(=O)[C@@H]2CCCN2C(=O)[C@@H]2CCCN2C1=O
notes: also called 3BP-3653
B7: Hex-[Cys(3MeBn)-Pro-Pro-Thr-Ala-Phe-Cys]-NH2 (peptide)
peptide: Hexanoyl-CPPTAFC-NH2
modifications: linker 1-7 via mXylylene
SMILES: CCCCCC(=O)N[C@H]1CSCc2cccc(c2)CSC[C@@H](C(N)=O)NC(=O)[C@H](Cc2ccccc2)NC(=O)[C@H](C)NC(=O)[C@H]([C@@H](C)O)NC(=O)[C@@H]2CCCN2C(=O)[C@@H]2CCCN2C1=O
B8: Hex-[Cys(3MeBn)-Pro-Pro-Ala-Glu-Phe-Cys]-NH2 (peptide)
peptide: Hexanoyl-CPPAEFC-NH2
modifications: linker 1-7 via mXylylene
SMILES: CCCCCC(=O)N[C@H]1CSCc2cccc(c2)CSC[C@@H](C(N)=O)NC(=O)[C@H](Cc2ccccc2)NC(=O)[C@H](CCC(=O)O)NC(=O)[C@H](C)NC(=O)[C@@H]2CCCN2C(=O)[C@@H]2CCCN2C1=O
B9: Hex-[Cys(3MeBn)-Pro-Pro-Thr-Moo-Phe-Cys]-NH2 (peptide)
peptide: Hexanoyl-CPPT[Met(O2)]FC-NH2
modifications: linker 1-7 via mXylylene
SMILES: CCCCCC(=O)N[C@H]1CSCc2cccc(c2)CSC[C@@H](C(N)=O)NC(=O)[C@H](Cc2ccccc2)NC(=O)[C@H](CCS(C)(=O)=O)NC(=O)[C@H]([C@@H](C)O)NC(=O)[C@@H]2CCCN2C(=O)[C@@H]2CCCN2C1=O
B10: Hex-[Cys(3MeBn)-Pro-Pro-Thr-Nme-Phe-Cys]-NH2 (peptide)
peptide: Hexanoyl-CPPT[NMeE]FC-NH2
modifications: linker 1-7 via mXylylene
SMILES: CCCCCC(=O)N[C@H]1CSCc2cccc(c2)CSC[C@@H](C(N)=O)NC(=O)[C@H](Cc2ccccc2)NC(=O)[C@H](CCC(=O)O)N(C)C(=O)[C@H]([C@@H](C)O)NC(=O)[C@@H]2CCCN2C(=O)[C@@H]2CCCN2C1=O
B11: Hex-[Cys(3MeBn)-Pro-Pro-Thr-Glu-Nphe-Cys]-NH2 (peptide)
peptide: Hexanoyl-CPPTE[Nphe]C-NH2
modifications: linker 1-7 via mXylylene
SMILES: CCCCCC(=O)N[C@H]1CSCc2cccc(c2)CSC[C@@H](C(N)=O)NC(=O)CN(Cc2ccccc2)C(=O)[C@H](CCC(=O)O)NC(=O)[C@H]([C@@H](C)O)NC(=O)[C@@H]2CCCN2C(=O)[C@@H]2CCCN2C1=O
B12: Hex-[Cys(3MeBn)-Pro-Pro-Thr-Glu-Bip-Cys]-NH2 (peptide)
peptide: Hexanoyl-CPPTE[Bip]C-NH2
modifications: linker 1-7 via mXylylene
SMILES: CCCCCC(=O)N[C@H]1CSCc2cccc(c2)CSC[C@@H](C(N)=O)NC(=O)[C@H](Cc2ccc(-c3ccccc3)cc2)NC(=O)[C@H](CCC(=O)O)NC(=O)[C@H]([C@@H](C)O)NC(=O)[C@@H]2CCCN2C(=O)[C@@H]2CCCN2C1=O
B13: Hex-[Cys(3MeBn)-Pro-Pro-Thr-Glu(NH-Apr-O2Oc-DOTA′)-Phe-Cys]-Asp-NH2 (peptide)
peptide: Hexanoyl-CPPTE([Apr-AEEA-DOTA′])FCD-NH2
modifications: linker 1-7 via mXylylene; reading uncertain; also: printed as Hex-[Cys(3MeBn)-Pro-Pro-Thr-Glu(NH-Apr-O2Oc-DOTA′)-Phe-Cys]-Asp-NH2
B14: Hex-[Cys(3MeBn)-Pro-Pro-Thr-Glu-Phe-Cys]-Asp-NH2 (peptide)
peptide: Hexanoyl-CPPTEFCD-NH2
modifications: linker 1-7 via mXylylene
SMILES: CCCCCC(=O)N[C@H]1CSCc2cccc(c2)CSC[C@@H](C(=O)N[C@@H](CC(=O)O)C(N)=O)NC(=O)[C@H](Cc2ccccc2)NC(=O)[C@H](CCC(=O)O)NC(=O)[C@H]([C@@H](C)O)NC(=O)[C@@H]2CCCN2C(=O)[C@@H]2CCCN2C1=O
B15: Hex-[Cys(3MeBn)-Pro-Pro-Thr-Glu(NH-Apr-DOTA′)-Phe-Cys]-Asp-NH2 (peptide)
peptide: Hexanoyl-CPPTE([Apr-DOTA′])FCD-NH2
modifications: linker 1-7 via mXylylene; reading uncertain; also: printed as Hex-[Cys(3MeBn)-Pro-Pro-Thr-Glu(NH-Apr-DOTA′)-Phe-Cys]-Asp-NH2

How the values were obtained:
[1] = biological target: Recombinant human FAP (R&D systems, #3715-SE) (human, UniProt Q12884 26-760); experiment: cell-based or functional assay
[2] = biological target: T1, fibroblast activation protein (FAP) on FAP-expressing human WI-38 fibroblasts (human, UniProt Q12884 1-760); experiment: competitive FACS, WI-38 cells, vs Cy5 tracer m3; A = pIC50 >8.0
T1 construct: also called human FAP

Binder | pIC50 Category (Activity) [1] | pIC50 Category (FACS) [2]
B1 | > 8 pIC50 | > 8 pIC50
B2 | > 8 pIC50 | > 8 pIC50
B3 | > 8 pIC50 | > 8 pIC50
B4 | 6.1 pIC50 and 7 pIC50 | 
B5 | 6.1 pIC50 and 7 pIC50 | 
B6 | > 8 pIC50 | > 8 pIC50
B7 | ≤ 6 pIC50 | 
B8 | ≤ 6 pIC50 | 
B9 | ≤ 6 pIC50 | 
B10 | ≤ 6 pIC50 | 
B11 | ≤ 6 pIC50 | 
B12 | ≤ 6 pIC50 | 
B13 | 6.1 pIC50 and 7 pIC50 | 
B14 | > 8 pIC50 | 
B15 | ≤ 6 pIC50 | 
